Experimental data reported in patent publication US20080102065A1 (published 2008).

T1: huEpoR expressed on the cell surface (UT-7 cells) (human, UniProt P19235 25-508)
T1 sequence (looked up): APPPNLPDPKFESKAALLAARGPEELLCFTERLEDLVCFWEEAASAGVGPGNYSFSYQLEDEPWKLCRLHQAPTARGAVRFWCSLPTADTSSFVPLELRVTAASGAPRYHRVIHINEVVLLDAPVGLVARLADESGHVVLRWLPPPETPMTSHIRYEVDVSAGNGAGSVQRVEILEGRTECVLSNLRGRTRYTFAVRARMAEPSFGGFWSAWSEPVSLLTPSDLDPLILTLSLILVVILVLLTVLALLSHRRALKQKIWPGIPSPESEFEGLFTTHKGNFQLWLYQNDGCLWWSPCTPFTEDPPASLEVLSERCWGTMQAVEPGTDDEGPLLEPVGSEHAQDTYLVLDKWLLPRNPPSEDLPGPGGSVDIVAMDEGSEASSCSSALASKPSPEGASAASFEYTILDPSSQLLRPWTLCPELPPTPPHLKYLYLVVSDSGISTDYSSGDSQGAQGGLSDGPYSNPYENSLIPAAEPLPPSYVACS

T2: huEpoR protein (soluble human erythropoietin receptor) (human, UniProt P19235 25-250, limits assumed)
T2 construct: also called soluble huEpoR; biotinylated huEpoR
T2 sequence (looked up): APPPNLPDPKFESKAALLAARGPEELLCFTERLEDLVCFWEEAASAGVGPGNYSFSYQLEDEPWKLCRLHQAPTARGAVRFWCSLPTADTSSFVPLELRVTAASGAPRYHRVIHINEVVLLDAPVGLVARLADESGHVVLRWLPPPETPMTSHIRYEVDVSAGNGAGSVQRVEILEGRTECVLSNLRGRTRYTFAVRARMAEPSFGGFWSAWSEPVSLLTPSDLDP

T3: mouse EpoR (muEpoR) (mouse, UniProt P14753 25-249, limits assumed)
T3 sequence (looked up): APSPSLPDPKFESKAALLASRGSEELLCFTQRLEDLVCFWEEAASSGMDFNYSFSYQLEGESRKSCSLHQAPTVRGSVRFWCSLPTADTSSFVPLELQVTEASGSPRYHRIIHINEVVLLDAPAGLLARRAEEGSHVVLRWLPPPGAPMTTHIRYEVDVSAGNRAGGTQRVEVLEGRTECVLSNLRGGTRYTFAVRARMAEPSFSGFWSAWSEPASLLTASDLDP

T4: cynomolgus monkey EpoR (cynoEpoR) (cynomolgus monkey, UniProt A0A2K5WKK4 25-250)
T4 construct: Soluble protein (coated in ELISA, analyte in SPR)
T4 sequence: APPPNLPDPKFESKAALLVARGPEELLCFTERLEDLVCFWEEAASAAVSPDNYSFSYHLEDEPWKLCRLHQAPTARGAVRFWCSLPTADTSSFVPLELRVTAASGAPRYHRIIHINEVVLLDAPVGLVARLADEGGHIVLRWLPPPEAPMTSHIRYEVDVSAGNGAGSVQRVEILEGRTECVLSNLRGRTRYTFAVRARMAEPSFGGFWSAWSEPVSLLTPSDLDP


Key:
[1] = molecular target: T1, huEpoR expressed on the cell surface …; test: cell-based or functional assay
[2] = molecular target: T2, huEpoR protein (soluble human …); test: SPR, Biacore T100; scFv-Fc captured on anti-human IgG Fc CM5 chip, EpoR as analyte; 1:1 fit;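 also: measured at 25 °C in HBS-EP buffer with 0.1 mg/ml BSA, flowed at 50 µl/min, 1 min association then dissociation (10 min human, 5 min cyno EpoR)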
Procedure: (§1) Surface plasmon resonance experiments were conducted at 25° C. using a Biacore T100 instrument (Biacore AB, Uppsala, Sweden) equipped with a CM5 sensor chip. Each flow cell on the CM5 chips was activated with a 1:1 (v/v) mixture of 0.1 M N-hydroxysuccinimide (NHS) and 0.4 M1-ethyl-3-(3-dimethylaminopropyl) carbodiimide hydrochloride (EDC). Fcγ Fragment Specific AffiniPure Goat Anti-Human IgG antibody at 30 μg/ml in 10 mM sodium acetate, pH 5.0 was immobilized to two flow cells on the CM5 chips using standard amine coupling chemistry with a target level of 10,000 Resonance Units (RU). Residual reactive surfaces were deactivated with an injection of 1 M ethanolamine. The running buffer was then switched to HBS-EP+0.1 mg/ml BSA for all remaining steps.
(§2) For each scFv-Fc protein to be tested, the scFv-Fc protein was diluted in running buffer to 200 ng/ml and injected over the test flow cell at 10 μl/min for 2 minutes to capture the maxibody. […] A flow rate of 50 μl/min was used and a 1 minute association phase followed by a 5 minute (for cyno EpoR) or 10 minute (for hu EpoR) dissociation phase. After each cycle the surfaces were regenerated with a 30 second injection of 10 mM glycine pH 1.5. Fresh scFv-Fc protein was then captured on the test flow cell to prepare for the next cycle.

mouse EpoR (muEpoR) = molecular target: T3, mouse EpoR (muEpoR); test: ELISA on coated muEpoR, scFv-Fc at 5 µg/ml (Example 17)
Procedure: The cross reactivity of certain clones in scFv-Fc format was tested using an ELISA Assay. […] 100 μl of 1 μg/ml (in 50 mM NaHCO3, pH8.5) cynoEpoR or muEpoR was added to each well on a polysorp ELISA plate and incubated at 4° C. overnight. After blocking the wells with 4% milk/PBS/0.1% Tween20 for 1 hour at room temperature, plates were washed three times with PBS/0.1% Tween20. 100 μl of 5 μg/ml scFv-Fc was added to each well and incubated for 1 hour at 25° C. […] ABTS (2,2′-azino-bis(3-ethylbenzthiazoline-6-sulfonic acid)) was used as a substrate and the absorption was measured at 405 nm on a plate reader.

[3] = molecular target: T4, cynomolgus monkey EpoR (cynoEpoR); test: SPR, Biacore T100; scFv-Fc captured on anti-human IgG Fc CM5 chip, EpoR as analyte; 1:1 fit;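 also: measured at 25 °C in HBS-EP buffer with 0.1 mg/ml BSA, flowed at 50 µl/min, 1 min association then dissociation (10 min human, 5 min cyno EpoR)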
Procedure: as §1, §2

| Average EC50 (nM), UT-7-luciferase (STAT5 reporter) assay [1] | Ratio (EC50 of Epo / EC50 of the scFv-Fc), UT-7-luciferase assay [1] | Kd [2] | koff [2] | kon [2] | binding result (mouse EpoR (muEpoR)) | Kd [3] | koff [3] | kon [3] | Binder |
| --- | --- | --- | --- | --- | --- | --- | --- | --- | --- |
| 8.28 nM | 0.001 | 4030 nM | 0.0187 s⁻¹ | 4600 M⁻¹ s⁻¹ |  |  |  |  | Mxb 201 (clone 201 scFv-Fc protein) (Fc fusion, Tested as scFv-Fc (maxibody) with an Fc derived from human IgG1) VH: QVQLQESGSGLARPSQTLSLTCAVSGGSISSSAFSWNWIRQPPGKGLEWIGYIYHTGITDYNPSLKSRVTISVDRSKNQFSLNVNSVTAADTAVYYCARGHGSDPAWFDPWGKGTLVTVSS VL: QSVLTQPPSVSVSPGQTASITCSGDKLGDKYASWYQQRPGQSPVLVIYRDTKRPSGIPERFSGSNSGNTATLTISGTQAVDEADYYCQAWDSTTSLVFGGGTKLTVL |
| 5.87 nM | 0.002 | 212 nM | 0.0335 s⁻¹ | 158000 M⁻¹ s⁻¹ | no binding (tested: 5 µg/ml) | 121 nM | 0.0258 s⁻¹ | 213000 M⁻¹ s⁻¹ | Mxb 319 (clone 319 scFv-Fc protein) (Fc fusion, Tested as scFv-Fc (maxibody) with an Fc derived from human IgG1) VH: QVQLVQSGAEIKKPGASVKVSCKTFGSPFSTNDIHWVRQAPGQGLEWMGIIDTSGAMTRYAQKFQGRVTVTRETSTSTVYMELSSLKSEDTAVYYCAREGCTNGVCYDNGFDIWGQGTLVTVSS VL: DIQMTQSPSTLSASIGDRVTITCRASEGIYHWLAWYQQKPGKAPKLLIYKASSLASGAPSRFSGSGSGTDFTLTISSLQPDDFATYYCQQYSNYPLTFGGGTKLEIK |
| 0.607 nM | 0.016 | 163 nM | 0.00296 s⁻¹ | 18000 M⁻¹ s⁻¹ | no binding (tested: 5 µg/ml) | 539 nM | 0.0221 s⁻¹ | 41000 M⁻¹ s⁻¹ | Mxb 295 (clone 295 scFv-Fc protein) (Fc fusion, Tested as scFv-Fc (maxibody) with an Fc derived from human IgG1) VH: EVQLVESGGGLVQPGGSLRLSCAASGFTFSSYAMSWVRQAPGKGLEWVSGISGSGSSEGGTYYADSVKGRFTLSRDNSKNTLYLQMNSLRAEDTALYYCVKDRPSRYSFGYYFDYWGRGTLVTVSS VL: LPVLTQPPSVSVSPGQTASIACSGNKLGDKYVSWYQQKPGQSPLLVIYQDTKRPSGIPERFSGSNSGNTATLTISGTQAMDEADYYCQAWDSSTDVVFGGGTKLTVL |
| 4.03 nM | 0.002 | 1040 nM | 0.0568 s⁻¹ | 55000 M⁻¹ s⁻¹ | no binding (tested: 5 µg/ml) | 920 nM | 0.0597 s⁻¹ | 65000 M⁻¹ s⁻¹ | Mxb 13 (clone 13 scFv-Fc protein) (Fc fusion, Tested as scFv-Fc (maxibody) with an Fc derived from human IgG1) VH: QVQLQQSGGGVVQPGRSLRLSCAASGFTFSDYAMHWVRQAPGKGLEWVAVISNHGKSTYYADSVKGRFTISRDNSKHMLYLQMNSLRADDTALYYCARDIALAGDYWGQGTLVTVSA VL: DIQMTQSPSSLSASVGDRVTITCRASQSISSYLNWYQQLPGKVPKLLIYGASKLQSGVPSRFSGSGSGTDFTLTISSLQPEDFATYYCLQDYNYPLTFGPGTRLEIK |
|  |  | 2190 nM | 0.142 s⁻¹ | 65000 M⁻¹ s⁻¹ | no binding (tested: 5 µg/ml) | 4360 nM | 0.283 s⁻¹ | 65000 M⁻¹ s⁻¹ | Mxb 16 (clone 16 scFv-Fc protein) (Fc fusion, Tested as scFv-Fc (maxibody) with an Fc derived from human IgG1) VH: QVQLQESGPGLVKPSETLSLTCTVSGGYINNYYWSWIRQPPGKGLEWIGYIHYSGSTYYNPSLKSRVTISEDTSKNQFSLKLSSATAADTAVYYCARVGYYYDSSGYNLAWYFDLWGRGTLVTVSA VL: SSELTQDPAVSVALGQTVRITCQGDNLRSYSATWYQQKPGQAPVLVLFGENNRPSGIPDRFSGSKSGDTAVLTITGTQTQDEADYYCTSRVNSGNHLGVFGPGTQLTVL |
| 0.055 nM | 0.175 |  |  |  |  |  |  |  | Mxb 378 (clone 378 scFv-Fc protein) (Fc fusion) VH: QVQLVESGGGLVQPGRSLILSCAVSGFTFSKYWMTWVRQAPGKGLEWVANIKPDGSEKYYVESVKGRFTISRDNAKNSVYLQMNSVRAEDTAVYYCARVSRGGSFSDWSQGTLVTVSS VL: QSALTQPPSASGSPGQSVTISCTGTSGDVGAYNYVSWYQQYPGKAPKLMIYEVSKRPSGVPDRFSGSKSGNTASLTVSGLQAEDEADYYCNSYRGSNGPWVFGGGTKVTVL |
| 2.8 nM | 0.003 | 1950 nM | 0.119 s⁻¹ | 61000 M⁻¹ s⁻¹ | no binding (tested: 5 µg/ml) | 3130 nM | 0.115 s⁻¹ | 37000 M⁻¹ s⁻¹ | Mxb 15 (clone 15 scFv-Fc protein) (Fc fusion, Tested as scFv-Fc (maxibody) with an Fc derived from human IgG1) VH: QVQLQESGPGLVRPSGTLSLTCAVSGGSIGSSNWWSWVRQAPGKGLEWIGEISQSGSTNYNPSLKGRVTISLDRSRNQLSLKLSSVTAADTAVYYCARQLRSIDAFDIWGPGTTVTVSA VL: SYVLTQPPSVSVSPGLTATITCSGDKLGDKYASWYQQKPGQSPVLVIYQDRKRPSGIPERFSGSNSGNTATLTISGTQAVDEADYYCQAWDSDTSYVFGTGTQLTVL |
| 0.322 nM | 0.03 |  |  |  |  |  |  |  | Mxb 276 (clone 276 scFv-Fc protein) (Fc fusion) VH: EVQLVQSGGGLVQPGGSLRLSCAASGFTFSSYWMSWVRQAPGKGLEWVANIKPDGSEKYYVDSVKGRFTISRDNAKNSVYLQMNSLRAEDTAVYYCARVSRGGSYSDWGRGTMVTVSS VL: QSVLTQPPSASGSPGQSVTISCTGTSSDVGGFNYVSWYQKYPGKAPKLVIYEVSKRPSGVPDRFSGSKSGNTASLTVSGLQAEDEADYYCSSWAPGKNLFGGGTKLTVL |
| 0.0075 nM | 1.28 | 45.4 nM | 0.0373 s⁻¹ | 822000 M⁻¹ s⁻¹ | no binding (tested: 5 µg/ml) | 890 nM | 0.0965 s⁻¹ | 108000 M⁻¹ s⁻¹ | Mxb 330 (clone 330 scFv-Fc protein) (Fc fusion, Tested as scFv-Fc (maxibody) with an Fc derived from human IgG1) VH: EVQLVESGGGLVQPGGSLRLSCAVSGFTFSKYWMTWVRQAPGKGLEWVANIKPDGSEKYYVESVKGRFTISRDNAKNSVYLQMNSVRAEDTAVYYCARVSRGGSFSDWGQGTLVTVSS VL: QSALTQPPSASGSPGQSVTISCTGTSSDVGAYNYVSWYQQHPGKAPKLMIYEVARRPSGVPDRFSGSKSGNTASLTVSGLQAEDEADYYCSSYAGSNNFAVFGRGTKLTVL |
| 0.381 nM | 0.025 | 108 nM | 0.246 s⁻¹ | 2.28e+06 M⁻¹ s⁻¹ | no binding (tested: 5 µg/ml) | 1210 nM | 0.361 s⁻¹ | 299000 M⁻¹ s⁻¹ | Mxb 307 (clone 307 scFv-Fc protein) (Fc fusion, Tested as scFv-Fc (maxibody) with an Fc derived from human IgG1) VH: EVQLVESGGGLVQPGGSLRLSCAVSGFTFSKYWMTWVRQAPGKGLEWVANIKPDGSEKYYVESVKGRFTISRDNAKNSVYLQMNSVRAEDTAVYYCARVSRGGSFSDWGQGTMVTVSS VL: QSVLTQPPSASGSPGQSVTISCTGTSSDVGGYNYVSWYQQHPDKAPRLMIYDVNKRPSGVPDRFSGSKSGNTASLTVSGLQAEDEAHYYCNSYAGSNNWVFGGGTQLTVL |
| 0.613 nM | 0.016 |  |  |  |  |  |  |  | Mxb 323 (clone 323 scFv-Fc protein) (Fc fusion) VH: QVQLVESGGGLVQPGGSLRLSCAVSGFTFSKYWMTWVRQAPGKGLEWVANIKPDGSEKYYVESVKGRFTISRDNAKNSVYLQMNSVRAEDTAVYYCARVSRGGSFSDWGRGTMVTVSS VL: QSALTQPASVSGSPGQSITISCTGTSSDVGSYNLVSWYQQHPGKVPKLIIYEVSNRPSGVSHRFSGSKSGNTASLTISGLQAEDEADYYCSSLTSSGTWVFGGGTKVTVL |
| 2.16 nM | 0.004 |  |  |  |  |  |  |  | Mxb 352 (clone 352 scFv-Fc protein) (Fc fusion) VH: EVQLVQSGGGLVQPGGSLRLSCAASGFRFSSYWMTWVRQAPGKGLEWVANIKPDGSEKYYVDSVKGRFTMSRDNAKNSVYLQMNSLRAEDTAVYYCARVSRGGSFSDWGQGTLVTVSS VL: QSALTQPASVSGSPGQSITIPCTGTSSDIGTYDYVSWYQQHPGKVPKVIIYEVTNRPSGVSNRFSGSKSGNTASLTISGLQADDEADYYCNSFTKNNTWVFGGGTKLTVL |
